Biological target: recombinant prefusion RV3 F antigen (human respirovirus 3 fusion glycoprotein, prefusion conformation) (human respirovirus 3 (RV3))
Experiment: cryo-EM structure

Substance: recombinant prefusion RV3 F antigen (human respirovirus 3 fusion glycoprotein, prefusion conformation) (natural protein)
- stoichiometry N: 3
